Experimental findings from article PMC12422189, “Molecular exaptation by the integrin αI domain” (Science Advances, 2025) are described below.

Test [1] deals with integrin αLβ2 with the αL internal ligand IEGT replaced by VDGT (UniProt P20701). The test can be described thus: flow cytometry on cells; HEK293T cells transfected with αL variants and β2; 20 mM tris-HCl pH 7.4, 150 mM NaCl, 1 mM MgCl2 + 1 mM MnCl2; purified His-tagged ICAM-1 ectodomain at 20 μg/ml, 1 hour at 37°C; read with iFluor 647 anti-His tag antibody; percent positive cells normalized to wild type.
Chain of integrin αLβ2 with the αL internal ligand IEGT replaced by VDGT (P20701 26-1170, chain 1 of 2): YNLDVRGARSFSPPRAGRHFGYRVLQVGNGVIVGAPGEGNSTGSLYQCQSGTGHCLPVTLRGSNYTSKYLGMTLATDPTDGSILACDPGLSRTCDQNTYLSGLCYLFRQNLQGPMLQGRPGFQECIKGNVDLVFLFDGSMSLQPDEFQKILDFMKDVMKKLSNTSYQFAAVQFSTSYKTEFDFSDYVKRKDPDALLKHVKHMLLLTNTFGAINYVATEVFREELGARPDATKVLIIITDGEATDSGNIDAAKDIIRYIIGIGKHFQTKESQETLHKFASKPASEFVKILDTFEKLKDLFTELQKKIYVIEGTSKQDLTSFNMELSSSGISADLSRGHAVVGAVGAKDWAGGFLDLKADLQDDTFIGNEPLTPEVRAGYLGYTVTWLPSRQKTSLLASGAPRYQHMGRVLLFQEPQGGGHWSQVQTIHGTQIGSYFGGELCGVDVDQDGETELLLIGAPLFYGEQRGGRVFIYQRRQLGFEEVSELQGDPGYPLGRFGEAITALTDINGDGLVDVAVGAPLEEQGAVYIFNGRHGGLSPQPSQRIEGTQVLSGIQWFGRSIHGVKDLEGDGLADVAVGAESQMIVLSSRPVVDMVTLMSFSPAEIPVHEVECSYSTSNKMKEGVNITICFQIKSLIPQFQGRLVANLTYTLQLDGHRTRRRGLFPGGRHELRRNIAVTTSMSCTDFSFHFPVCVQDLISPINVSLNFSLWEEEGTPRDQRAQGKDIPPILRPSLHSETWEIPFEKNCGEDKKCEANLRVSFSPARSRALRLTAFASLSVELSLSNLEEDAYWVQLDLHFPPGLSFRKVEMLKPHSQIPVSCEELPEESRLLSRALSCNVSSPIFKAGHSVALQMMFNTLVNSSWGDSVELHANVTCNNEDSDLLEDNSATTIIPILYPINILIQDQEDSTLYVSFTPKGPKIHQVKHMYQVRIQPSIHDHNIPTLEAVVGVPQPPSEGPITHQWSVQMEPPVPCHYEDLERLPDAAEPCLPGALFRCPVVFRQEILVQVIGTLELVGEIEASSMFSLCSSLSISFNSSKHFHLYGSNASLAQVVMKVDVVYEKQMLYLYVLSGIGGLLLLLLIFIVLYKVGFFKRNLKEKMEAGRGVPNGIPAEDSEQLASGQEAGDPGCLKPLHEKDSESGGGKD
Chain of integrin αLβ2 with the αL internal ligand IEGT replaced by VDGT (P05107 23-769, chain 2 of 2, further chain): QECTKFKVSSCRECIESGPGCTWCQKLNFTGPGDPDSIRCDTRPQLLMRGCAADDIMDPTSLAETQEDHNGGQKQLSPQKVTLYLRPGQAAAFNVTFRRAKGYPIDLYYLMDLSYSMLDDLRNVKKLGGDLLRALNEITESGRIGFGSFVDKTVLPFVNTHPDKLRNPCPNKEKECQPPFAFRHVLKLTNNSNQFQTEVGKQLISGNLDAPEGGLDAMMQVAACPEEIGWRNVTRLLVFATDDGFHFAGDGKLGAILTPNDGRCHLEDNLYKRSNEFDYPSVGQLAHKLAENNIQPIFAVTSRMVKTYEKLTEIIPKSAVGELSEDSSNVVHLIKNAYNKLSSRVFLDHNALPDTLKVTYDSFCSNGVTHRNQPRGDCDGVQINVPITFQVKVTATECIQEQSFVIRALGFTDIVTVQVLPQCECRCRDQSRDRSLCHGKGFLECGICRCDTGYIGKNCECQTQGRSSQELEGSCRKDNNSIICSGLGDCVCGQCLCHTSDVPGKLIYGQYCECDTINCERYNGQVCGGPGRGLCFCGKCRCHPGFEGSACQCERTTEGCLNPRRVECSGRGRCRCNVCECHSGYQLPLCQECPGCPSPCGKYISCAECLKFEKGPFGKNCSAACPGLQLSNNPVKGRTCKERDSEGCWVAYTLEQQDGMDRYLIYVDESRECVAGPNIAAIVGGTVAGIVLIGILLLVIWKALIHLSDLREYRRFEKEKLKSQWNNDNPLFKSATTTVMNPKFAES

For test [2], the target named is T1, Fc-tagged E-cadherin ectodomain (UniProt P12830 155-698).
T1 construct: Fc tag amplified from Addgene plasmid 145164; E-cadherin insert a gift from B. Gumbiner; Captured on Protein A biosensors by the Fc; also called Human Fc-tagged E-cadherin ectodomain; source: ExpiCHO, secreted, purified (HiTrap Protein G, Superdex 200); not shown: Fc (human), C-terminal, kept
T1 sequence (looked up): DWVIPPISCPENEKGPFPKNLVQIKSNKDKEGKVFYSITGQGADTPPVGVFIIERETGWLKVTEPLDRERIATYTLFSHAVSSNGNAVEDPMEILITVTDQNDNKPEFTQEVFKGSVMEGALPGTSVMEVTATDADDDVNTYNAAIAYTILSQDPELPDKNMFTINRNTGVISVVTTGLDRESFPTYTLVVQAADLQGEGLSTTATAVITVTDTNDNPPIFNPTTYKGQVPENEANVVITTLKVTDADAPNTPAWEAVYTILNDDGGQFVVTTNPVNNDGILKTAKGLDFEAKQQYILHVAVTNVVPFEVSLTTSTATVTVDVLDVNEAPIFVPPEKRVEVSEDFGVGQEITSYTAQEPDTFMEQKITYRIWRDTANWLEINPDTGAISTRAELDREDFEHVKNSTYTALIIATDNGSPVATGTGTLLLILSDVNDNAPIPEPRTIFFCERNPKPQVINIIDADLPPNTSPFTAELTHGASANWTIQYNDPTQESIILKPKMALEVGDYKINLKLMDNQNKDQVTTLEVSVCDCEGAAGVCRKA
The test can be described thus: BLI; Octet RED, 25°C; Fc-tagged E-cadherin ectodomain loaded on Protein A biosensors; αEβ7 in solution, two-fold series 500 to 16.125 nM; activating buffer with 0.1% BSA and 0.02% Tween 20; 1:1 model, global fit of three replicates. The settings on record: both partners purified. On the technique in general: In BLI a coated tip is dipped into the sample, and binding shifts an interference pattern.

Consider “intercellular adhesion molecule-1 (ICAM-1) ectodomain, His-tagged (from UniProt P05362 28-480) (ligand)”, for which, in test [1], the ligand binding, percent of wild type stood at 60%.

B1: integrin αEβ7 (as used for biolayer interferometry) (complex)
chain 1: FNVDVARPWLTPKGGAPFVLSSLLHQDPSTNQTWLLVTSPRTKRTPGPLHRCSLVQDEILCHPVEHVPIPKGRHRGVTVVRSHHGVLICIQVLVRRPHSLSSELTGTCSLLGPDLRPQAQANFFDLENLLDPDARVDTGDCYSNKEGGGEDDVNTARQRRALEKEEEEDKEEEEDEEEEEAGTEIAIILDGSGSIDPPDFQRAKDFISNMMRNFYEKCFECNFALVQYGGVIQTEFDLRDSQDVMASLARVQNITQVGSVTKTASAMQHVLDSIFTSSHGSRRKASKVMVVLTDGGIFEDPLNLTTVINSPKMQGVERFAIGVGEEFKSARTARELNLIASDPDETHAFKVTNYMALDGLLSKLRYNIISMEGTVGDALHYQLAQIGFSAQILDERQVLLGAVGAFDWSGGALLYDTRSRRGRFLNQTAAAAADAEAAQYSYLGYAVAVLHKTCSLSYIAGAPRYKHHGAVFELQKEGREASFLPVLEGEQMGSYFGSELCPVDIDMDGSTDFLLVAAPFYHVHGEEGRVYVYRLSEQDGSFSLARILSGHPGFTNARFGFAMAAMGDLSQDKLTDVAIGAPLEGFGADDGASFGSVYIYNGHWDGLSASPSQRIRASTVAPGLQYFGMSMAGGFDISGDGLADITVGTLGQAVVFRSRPVVRLKVSMAFTPSALPIGFNGVVNVRLCFEISSVTTASESGLREALLNFTLDVDVGKQRRRLQCSDVRSCLGCLREWSSGSQLCEDLLLMPTEGELCEEDCFSNASVKVSYQLQTPEGQTDHPQPILDRYTEPFAIFQLPYEKACKNKLFCVAELQLATTVSQQELVVGLTKELTLNINLTNSGEDSYMTSMALNYPRNLQLKRMQKPPSPNIQCDDPQPVASVLIMNCRIGHPVLKRSSAHVSVVWQLEENAFPNRTADITVTVTNSNERRSLANETHTLQFRHGFVAVLSKPSIMYVNTGQGLSHHKEFLFHVHGENLFGAEYQLQICVPTKLRGLQVVAVKKLTRTQASTVCTWSQERACAYSSVQHVEEWHSVSCVIASDKENVTVAAEISWDHSEELLKDVTELQILGEISFNKSLYEGLNAENHRTKITVVFLKDEKYH
chain 2: ELDAKIPSTGDATEWRNPHLSMLGSCQPAPSCQKCILSHPSCAWCKQLNFTASGEAEARRCARREELLARGCPLEELEEPRGQQEVLQDQPLSQGARGEGATQLAPQRVRVTLRPGEPQQLQVRFLRAEGYPVDLYYLMDLSYSMKDDLERVRQLGHALLVRLQEVTHSVRIGFGSFVDKTVLPFVSTVPSKLRHPCPTRLERCQSPFSFHHVLSLTGDAQAFEREVGRQSVSGNLDSPEGGFDAILQAALCQEQIGWRNVSRLLVFTSDDTFHTAGDGKLGGIFMPSDGHCHLDSNGLYSRSTEFDYPSVGQVAQALSAANIQPIFAVTSAALPVYQELSKLIPKSAVGELSEDSSNVVQLIMDAYNSLSSTVTLEHSSLPPGVHISYESQCEGPEKREGKAEDRGQCNHVRINQTVTFWVSLQATHCLPEPHLLRLRALGFSEELIVELHTLCDCNCSDTQPQAPHCSDGQGHLQCGVCSCAPGRLGRLCECSVAELSSPDLESGCRAPNGTGPLCSGKGHCQCGRCSCSGQSSGHLCECDDASCERHEGILCGGFGRCQCGVCHCHANRTGRACECSGDMDSCISPEGGLCSGHGRCKCNRCQCLDGYYGALCDQCPGCKTPCERHRDCAECGAFRTGPLATNCSTACAHTNVTLALAPILDDGWCKERTLDNQLFFFLVEDDARGTVVLRVRPQEKGADH
modifications: Wild-type αE taken for BLI: the paper assigns wild-type to the E-cadherin complex and RRtoGG (R177G/R178G) only to the Fab complex; the BLI section does not state which was used. Signal peptides …
In test [2], B1 registered a Kd of 51 ± 7.9 nM.

Usually Kd stands for the equilibrium constant for the complex coming apart. The low end stands for tighter binding, the high end for weaker binding.
